# Data as given in patent US20250136696A1 (HARBOUR BIOMED SHANGHAI, published 2025).
# T1: human B7-H7 on the cell surface (human, UniProt Q9UM44 23-414)
# T1 construct: whole, on cells; also called hB7-H7; hu B7-H7
# T1 sequence (looked up): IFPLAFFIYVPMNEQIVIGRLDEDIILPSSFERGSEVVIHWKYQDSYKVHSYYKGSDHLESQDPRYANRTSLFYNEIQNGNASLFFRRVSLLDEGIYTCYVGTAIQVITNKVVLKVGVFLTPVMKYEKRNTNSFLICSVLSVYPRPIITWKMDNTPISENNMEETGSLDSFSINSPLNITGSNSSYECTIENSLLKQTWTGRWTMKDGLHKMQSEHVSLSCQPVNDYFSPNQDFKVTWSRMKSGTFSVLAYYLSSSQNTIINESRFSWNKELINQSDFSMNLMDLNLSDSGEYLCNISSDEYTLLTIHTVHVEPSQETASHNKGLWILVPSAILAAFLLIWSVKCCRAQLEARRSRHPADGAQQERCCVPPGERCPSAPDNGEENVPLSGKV
# T2: human B7-H7 recombinant protein (human, UniProt Q9UM44 23-344)
# T2 construct: also called human B7-H7 protein
# T2 sequence (looked up): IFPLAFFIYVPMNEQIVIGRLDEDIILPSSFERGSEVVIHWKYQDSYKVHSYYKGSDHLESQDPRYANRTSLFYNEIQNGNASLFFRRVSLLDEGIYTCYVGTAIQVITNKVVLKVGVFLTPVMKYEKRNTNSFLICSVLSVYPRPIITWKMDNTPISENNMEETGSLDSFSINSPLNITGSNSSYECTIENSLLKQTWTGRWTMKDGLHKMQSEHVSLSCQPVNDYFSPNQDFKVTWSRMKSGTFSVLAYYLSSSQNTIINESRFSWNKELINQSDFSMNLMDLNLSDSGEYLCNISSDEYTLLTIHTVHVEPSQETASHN
# T3: biotinylated human B7-H7 protein (Acro Biosystems, B77-H82F5) (human, UniProt Q9UM44 23-344, biotinylated)
# T3 construct: Bought soluble protein; also called biotin-B7H7 protein
# T3 sequence (looked up): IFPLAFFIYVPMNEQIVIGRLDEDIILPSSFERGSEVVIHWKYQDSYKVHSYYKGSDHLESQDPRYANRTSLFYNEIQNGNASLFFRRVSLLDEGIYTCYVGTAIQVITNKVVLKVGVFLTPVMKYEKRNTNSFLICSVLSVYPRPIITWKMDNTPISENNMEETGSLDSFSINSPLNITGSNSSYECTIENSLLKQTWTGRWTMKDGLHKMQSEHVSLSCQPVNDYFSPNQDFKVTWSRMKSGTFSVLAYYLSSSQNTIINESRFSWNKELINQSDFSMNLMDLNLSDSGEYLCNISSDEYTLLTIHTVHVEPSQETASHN
# Key:
# [1] = target: T1, human B7-H7 on the cell surface; experiment: flow cytometry on LS180 cells, expression supernatant diluted 1:1, 1:10, 1:100
# [2] = target: T2, human B7-H7 recombinant protein; experiment: BLI (Octet), antibody captured on AHC sensor, human B7-H7 in solution, 1:1 global fit
# Experimental: The binding kinetics between antigen and antibody was analyzed using an Octet Red 96e (Fortebio) molecular interaction analyzer by biolayer interferometry (BLI) technology.
# For determining the affinity of antibodies for antigens, the rotary speed of the sensor was set at 1000 rpm. AHC sensors (Fortebio, #18-5060) placed in one column were first equilibrated in a test buffer for 10 minutes, and then used to capture the anti-B7-H7 antibodies at a capture height of 0.7 nm; and after being equilibrated in the buffer for 120 s, the AHC sensors bound to human B7-H7 (concentrations: 50-3.125 nM and 0 nM) with 2-fold gradient dilution for 180 s and dissociated for 300 s. The AHC sensors were finally regenerated by immersing in a 10 mM glycine-hydrochloric acid solution with pH 1.5 to elute the protein bound to the sensors.
# For data analysis using Octet Data Analysis software (Fortebio, version 11.0), 0 nM well was used as the reference well, reference subtraction was performed, “1:1 Global fitting” method was selected for data fitting, the kinetic parameters of the binding of the antigen to the antigen-binding protein were calculated, and the kₒₙ (1/Ms) value, kdis (1/s) value and KD (M) value were obtained.
# [3] = target: T3, biotinylated human B7-H7 protein (Acro …); experiment: BLI epitope competition on SA-captured biotinylated B7-H7; competitor (first antibody) PR003249
# Experimental: Epitope competition experiments were performed on the anti-B7-H7 antibodies using the ForteBio Octet Red96e platform with the same experimental buffer as described above. […] After being equilibrated in a buffer for 120 s, the sensors were immersed in various antibodies diluted to 100 nM for 240 s, and the final signal of the antibody binding to B7-H7 was recorded as the 100% signal for that antibody. Second step, epitope competition experiment: B7-H7 was captured using SA sensors at a capture height of 0.25 nm. The sensors were immersed in a first antibody (concentration: 100 nM) for 240 s, then the SA sensors were immersed in a mixture of the first antibody and a second antibody (final concentration of both antibodies: 100 nM) for 240 s, and the difference in signals before and after immersing the sensors in the mixture of the two antibodies was recorded as the signal for that antibody as the second antibody. The inhibition rate was calculated by the following equation, […]
# [4] = target: T3, biotinylated human B7-H7 protein (Acro …); experiment: flow cytometry, blocking of biotinylated human B7-H7 binding to HEK-293/CD28H cells
# Experimental: This example was intended to study the in vitro blocking activity of human anti-B7-H7 antibodies against the binding of human B7-H7 to its receptor CD28H. […] The cells were adjusted to a cell density of 1×10⁶ cells/mL. […] The cells were incubated at 4° C. for 1 hour in the dark. […] The cells were rinsed twice by adding pre-chilled PBS containing 2% BSA at 100 μL/well, and were centrifuged at 500 g at 4° C. for 5 minutes, and the supernatant was discarded. A fluorescent secondary antibody (PE Streptavidin, BD, Cat #: 554061, 1:200) was added at 100 μL/well, and the cells were incubated at 4° C. for 30 minutes in the dark. The cells were washed twice by adding pre-chilled PBS at 200 μL/well, and centrifuged at 500 g at 4° C. for 5 minutes, and the supernatant was discarded. Finally, the cells were resuspended in pre-chilled PBS at 200 μL/well, and the fluorescence signal values were read using an ACEA Novocyte3000 flow cytometer. IC50 was calculated.
# [5] = target: T1, human B7-H7 on the cell surface; experiment: flow cytometry, HEK-293/hu B7-H7 cells
# Experimental: (§1) This example was intended to study the in vitro activity of H2L2 monoclonal antibodies against human B7-H7 in binding to human/cynomolgus monkey B7-H7. Since homologous molecules of B7-H7 were not present in mice, the detection was not performed. […] The cells were adjusted to a cell density of 1×10⁶ cells/mL, respectively. The cells were seeded in a 96-well V-bottom plate (Corning, #3894) at 100 μL/well, and the antibody to be tested at 2× final concentration with 3-fold concentration gradient dilution was then added at 100 μL/well. The cells were incubated at 4° C. for 2 hours in the dark. After the incubation, the cells were rinsed twice by adding pre-chilled PBS containing 2% BSA at 100 μl/well, and centrifuged at 500 g at 4° C. for 5 minutes, and the supernatant was discarded. […] The cells were washed twice by adding pre-chilled PBS containing 2% BSA at 100 μL/well, and centrifuged at 500 g at 4° C. for 5 minutes, and the supernatant was discarded. Finally, the cells were resuspended in pre-chilled PBS containing 2% BSA at 200 μL/well, and the fluorescence signal values were read using an ACEA Novocyte3000 flow cytometer.
# [6] = target: T4, cynomolgus monkey B7-H7 on the cell surface (cynomolgus monkey); experiment: flow cytometry, HEK-293/cyno B7-H7 cells
# T4 construct: whole, on cells; also called cyno B7-H7
# Experimental: as §1
# [7] = target: T1, human B7-H7 on the cell surface; experiment: flow cytometry, HCC827 cells
# Experimental: as §1
# [8] = target: T3, biotinylated human B7-H7 protein (Acro …); experiment: flow cytometry, blocking of biotinylated human B7-H7 binding to CHO-K1/KIR3DL3 cells
# Description: This example was intended to study the in vitro blocking activity of human anti-B7-H7 antibodies against the binding of human B7-H7 to its receptor KIR3DL3. A CHO-K1 cell (CHO-K1/KIR3DL3, Harbour BioMed US, Inc.) overexpressing human KIR3DL3 was used in experiments at the cellular level where human B7-H7/human KIR3DL3 binding was blocked. Briefly, the CHO-K1/KIR3DL3 cells were digested and resuspended in PBS containing 2% BSA. The cells were adjusted to a cell density of 1×10⁶ cells/mL. […] The cells were incubated at 4° C. for 1 hour in the dark. […] The cells were rinsed twice by adding pre-chilled PBS containing 2% BSA at 100 μL/well, and were centrifuged at 500 g at 4° C. for 5 minutes, and the supernatant was discarded. A fluorescent secondary antibody (PE Streptavidin, BD, Cat #: 554061, 1:200) was added at 100 μL/well, and the cells were incubated at 4° C. for 30 minutes in the dark. The cells were washed twice by adding pre-chilled PBS at 200 µL/well, and centrifuged at 500 g at 4° C. for 5 minutes, and the supernatant was discarded. Finally, the cells were resuspended in pre-chilled PBS at 200 μL/well, and the fluorescence signal values were read using an ACEA Novocyte3000 flow cytometer. IC50 was calculated.
binder,measurement,setting,value
"PR004479 (antibody, human IgG1, kappa, L234A L235A, V domains shown, Variant of PR003249, H:D54E; Human IgG1 LALA; expressed supernatant only) VH: QVQLVESGGGVVQPGRSLRLSCAASGFTFSDYGIHWVRQAPGKGLEWVAVIWYEGSDKYYADSVRGRFTISRDNSKNTLSLQMNSLRVEDTAVYYCARDRSSGAMGYFVYWGQGTLVTVSS VL: not shown",binding result,[1],binds
"PR004481 (antibody, human IgG1, kappa, L234A L235A, V domains shown, Variant of PR003249, H:D54E; L:S93A; Human IgG1 LALA; expressed supernatant only) VH: QVQLVESGGGVVQPGRSLRLSCAASGFTFSDYGIHWVRQAPGKGLEWVAVIWYEGSDKYYADSVRGRFTISRDNSKNTLSLQMNSLRVEDTAVYYCARDRSSGAMGYFVYWGQGTLVTVSS VL: not shown",binding result,[1],binds
"PR004486 (antibody, human IgG1, kappa, L234A L235A, V domains shown, Variant of PR003249, L:S93A; Human IgG1 LALA; expressed supernatant only) VH: QVQLVESGGGVVQPGRSLRLSCAASGFTFSDYGIHWVRQAPGKGLEWVAVIWYDGSDKYYADSVRGRFTISRDNSKNTLSLQMNSLRVEDTAVYYCARDRSSGAMGYFVYWGQGTLVTVSS VL: not shown",binding result,[1],binds
"PR004485 (antibody, human IgG1, kappa, L234A L235A, V domains shown, Variant of PR003249, L:N92Q; Human IgG1 LALA; expressed supernatant only) VH: QVQLVESGGGVVQPGRSLRLSCAASGFTFSDYGIHWVRQAPGKGLEWVAVIWYDGSDKYYADSVRGRFTISRDNSKNTLSLQMNSLRVEDTAVYYCARDRSSGAMGYFVYWGQGTLVTVSS VL: not shown",binding result,[1],binds
"PR004480 (antibody, human IgG1, kappa, L234A L235A, V domains shown, Variant of PR003249, H:D54E; L:N92Q; Human IgG1 LALA; expressed supernatant only) VH: QVQLVESGGGVVQPGRSLRLSCAASGFTFSDYGIHWVRQAPGKGLEWVAVIWYEGSDKYYADSVRGRFTISRDNSKNTLSLQMNSLRVEDTAVYYCARDRSSGAMGYFVYWGQGTLVTVSS VL: not shown",binding result,[1],binds
"PR004482 (antibody, human IgG1, kappa, L234A L235A, V domains shown, Variant of PR003249, H:G55A; Human IgG1 LALA; expressed supernatant only) VH: QVQLVESGGGVVQPGRSLRLSCAASGFTFSDYGIHWVRQAPGKGLEWVAVIWYDASDKYYADSVRGRFTISRDNSKNTLSLQMNSLRVEDTAVYYCARDRSSGAMGYFVYWGQGTLVTVSS VL: not shown",binding result,[1],binds
"PR003265 (antibody, human IgG1, kappa, V domains shown, Human IgG1; also called 78G8B3) VH: QVQLVESGGGVVQPGRSLRLSCAASGFTFSTYGLHWVRQAPGKGLEWVAVIWYDESNEYYADSVKGRFTISRDNSKNTLYLQMNSLRAEDTALYYCARLAHDYGGTYFDYWGQGTLVTVSS VL: EIVMTQSPAILSVSPGERATLSCRASQSISYNLAWYQQKPGQAPRLLIYGASIRATGIPARFSGSGSGTDFTLTISSLQSEDFAVYYCQQYNNWPPWTFGQGTKVEIKR",Kd,[2],0.595 nM
same,koff,[2],2.93e-05 s⁻¹
same,kon,[2],49300 M⁻¹ s⁻¹
same,Competitive inhibition rate (%),[3],106%
same,IC50,[4],1.39 nM
same,Maximum inhibition rate (%),[4],102%
same,EC50,[5],1.24 nM
same,Maximum MFI,[5],824000 MFI
same,EC50,[6],0.711 nM
same,Maximum MFI,[6],451000 MFI
same,EC50,[7],0.0903 nM
same,Maximum MFI,[7],51800 MFI
same,IC50,[8],7.04 nM
same,Maximum inhibition rate (%),[8],101%
"PR004487 (antibody, human IgG1, kappa, L234A L235A, V domains shown, Variant of PR003259, H:D54E; Human IgG1 LALA; expressed supernatant only) VH: QVQLVESGGGVVQPGRSLRLSCAASGFTFSNYGMHWVRQVPGKGLEWVAVIWYEGSEKDYADSVKGRFTISRDNSKNTLYLQMNSLRVEDTAVYYCAKDLISGIYYVDHWGQGTLVTVSS VL: DIQMTQSPSSLSASVGDRVTITCRASQGISNYLAWYQQKPGKVPKLLIYAASTLQSGVPSRFSGSGSGTDFTLTISSLQPEDVATYYCQKYNSAPFTFGPGTKVDIKR",binding result,[1],binds
"PR004488 (antibody, human IgG1, kappa, L234A L235A, V domains shown, Variant of PR003259, H:D54E; L:N92Q; Human IgG1 LALA; expressed supernatant only) VH: QVQLVESGGGVVQPGRSLRLSCAASGFTFSNYGMHWVRQVPGKGLEWVAVIWYEGSEKDYADSVKGRFTISRDNSKNTLYLQMNSLRVEDTAVYYCAKDLISGIYYVDHWGQGTLVTVSS VL: DIQMTQSPSSLSASVGDRVTITCRASQGISNYLAWYQQKPGKVPKLLIYAASTLQSGVPSRFSGSGSGTDFTLTISSLQPEDVATYYCQKYQSAPFTFGPGTKVDIKR",binding result,[1],binds
